# T1: PRs (B-form) (Homo sapiens, UniProt P06401)
# T1 construct: expressed in transfected cells; host or cells: CV-1
# T1 sequence (P06401 1-933): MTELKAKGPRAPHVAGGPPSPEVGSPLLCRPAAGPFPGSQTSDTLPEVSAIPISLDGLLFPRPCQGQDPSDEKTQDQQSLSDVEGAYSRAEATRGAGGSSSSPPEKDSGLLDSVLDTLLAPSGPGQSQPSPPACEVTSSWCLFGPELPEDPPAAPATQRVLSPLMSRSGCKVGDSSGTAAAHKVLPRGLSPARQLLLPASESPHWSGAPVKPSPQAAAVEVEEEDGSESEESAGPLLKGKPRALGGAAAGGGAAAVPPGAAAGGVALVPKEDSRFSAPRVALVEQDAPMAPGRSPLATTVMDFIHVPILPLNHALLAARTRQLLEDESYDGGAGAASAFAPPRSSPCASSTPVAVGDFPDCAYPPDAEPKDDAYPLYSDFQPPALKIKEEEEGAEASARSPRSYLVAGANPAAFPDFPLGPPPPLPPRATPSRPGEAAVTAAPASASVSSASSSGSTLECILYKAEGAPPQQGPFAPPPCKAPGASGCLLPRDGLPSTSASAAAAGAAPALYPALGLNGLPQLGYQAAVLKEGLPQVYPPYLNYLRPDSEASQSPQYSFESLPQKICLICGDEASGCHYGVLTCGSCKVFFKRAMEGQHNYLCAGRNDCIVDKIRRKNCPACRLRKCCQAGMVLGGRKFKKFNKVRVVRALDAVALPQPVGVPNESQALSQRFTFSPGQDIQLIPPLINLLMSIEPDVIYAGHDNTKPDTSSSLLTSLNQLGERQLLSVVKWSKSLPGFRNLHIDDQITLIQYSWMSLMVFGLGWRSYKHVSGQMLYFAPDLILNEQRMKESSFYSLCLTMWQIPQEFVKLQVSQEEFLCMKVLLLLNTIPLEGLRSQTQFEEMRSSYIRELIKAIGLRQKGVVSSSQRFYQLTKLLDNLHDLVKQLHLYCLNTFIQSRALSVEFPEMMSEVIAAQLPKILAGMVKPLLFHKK
# T1 sequence (Q6EMB2 838-1281 F1267S partner limits assumed): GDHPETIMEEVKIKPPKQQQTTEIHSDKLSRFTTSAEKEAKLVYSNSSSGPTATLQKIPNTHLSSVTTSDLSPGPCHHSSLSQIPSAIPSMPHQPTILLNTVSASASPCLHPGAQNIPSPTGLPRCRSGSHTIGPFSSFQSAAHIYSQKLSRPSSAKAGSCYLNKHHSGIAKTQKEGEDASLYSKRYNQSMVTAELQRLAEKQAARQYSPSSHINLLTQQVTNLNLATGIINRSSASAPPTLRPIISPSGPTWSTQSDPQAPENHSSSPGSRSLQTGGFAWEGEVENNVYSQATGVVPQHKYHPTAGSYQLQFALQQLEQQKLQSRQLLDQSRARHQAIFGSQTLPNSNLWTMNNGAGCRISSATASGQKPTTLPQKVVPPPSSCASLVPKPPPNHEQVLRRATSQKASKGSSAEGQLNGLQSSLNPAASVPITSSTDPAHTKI
# B1: STAMP834C: STAMP fragment amino acids 834-1277, receptor interaction domain (RID) (protein)
# chain: T1 sequence (Q6EMB2 838-1281 F1267S partner limits assumed)
# B2: 6-6CL1: STAMP fragment amino acids 623-834, coactivator interaction domain (CID) (protein)
# chain: ENTPKENSMKVREWNNKGGHCCKLETQELEPKFNLMQILQDNGNLSKMQARIAFSAYLQHVQIRLMKDSGGQTFSASWAAKEDEQMELVVRFLKRASNNLQHSLRMVLPSRRLALLERRRILAHQLGDFIIVYNKETEQMAEKKSKKKVEEEEEDGVNMENFQEFIRQASEAELEEVLTFYTQKNKSASVFLGTHSKISKNNNNYSDSGAKG
# B3: STAMP: SRC-1 and TIF2 Associated Modulatory Protein, 1277 amino acid human polypeptide, expressed from transfected plasmid (protein)
# chain: MARDLEETASSSEDEEVISQEDHPCIMWTGGCRRIPVLVFHADAILTKDNNIRVIGERYHLSYKIVRTDSRLVRSILTAHGFHEVHPSSTDYNLMWTGSHLKPFLLRTLSEAQKVNHFPRSYELTRKDRLYKNIIRMQHTHGFKVFHILPQTFLLPAEYAEFCNSYSKDRGPWIVKPVASSRGRGVYLINNPNQISLEENILVSRYINNPLLIDDFKFDVRLYVLVTSYDPLVIYLYEEGLARFATVRYDQGAKNIRNQFMHLTNYSVNKKSGDYVSCDDPEVEDYGNKWSMSAMLRYLKQEGRDTTALMAHVEDLIIKTIISAELAIATACKTFVPHRSSCFELYGFDVLIDSTLKPWLLEVNLSPSLACDAPLDLKIKASMISDMFTVVGFVCQDPAQRASTRPIYPTFESSRRNPFQKPQRCRPLSASDAEMKNLVGSAREKGPGKLGGSVLGLSMEEIKVLRRVKEENDRRGGFIRIFPTSETWEIYGSYLEHKTSMNYMLATRLFQDRMTADGAPELKIESLNSKAKLHAALYERKLLSLEVRKRRRRSSRLRAMRPKYPVITQPAEMNVKTETESEEEEEVALDNEDEEQEASQEESAGFLRENQAKYTPSLTALVENTPKENSMKVREWNNKGGHCCKLETQELEPKFNLMQILQDNGNLSKMQARIAFSAYLQHVQIRLMKDSGGQTFSASWAAKEDEQMELVVRFLKRASNNLQHSLRMVLPSRRLALLERRRILAHQLGDFIIVYNKETEQMAEKKSKKKVEEEEEDGVNMENFQEFIRQASEAELEEVLTFYTQKNKSASVFLGTHSKISKNNNNYSDSGAKGDHPETIMEEVKIKPPKQQQTTEIHSDKLSRFTTSAEKEAKLVYSNSSSGPTATLQKIPNTHLSSVTTSDLSPGPCHHSSLSQIPSAIPSMPHQPTILLNTVSASASPCLHPGAQNIPSPTGLPRCRSGSHTIGPFSSFQSAAHIYSQKLSRPSSAKAGSCYLNKHHSGIAKTQKEGEDASLYSKRYNQSMVTAELQRLAEKQAARQYSPSSHINLLTQQVTNLNLATGIINRSSASAPPTLRPIISPSGPTWSTQSDPQAPENHSSSPGSRSLQTGGFAWEGEVENNVYSQATGVVPQHKYHPTAGSYQLQFALQQLEQQKLQSRQLLDQSRARHQAIFGSQTLPNSNLWTMNNGAGCRISSATASGQKPTTLPQKVVPPPSSCASLVPKPPPNHEQVLRRATSQKASKGSSAEGQLNGLQSSLNPAASVPITSSTDPAHTKI
# Tests used:
# Format in all cases: cell-based
# [1] = biological target: T2, ERβ (Homo sapiens, UniProt Q92731); experiment: Mammalian two-hybrid assay with VP16 full length receptor: ERβ; details: 1 μM estradiol
# T2 construct: plus VP16 fused to the indicated full length receptors; expressed in transfected cells; host or cells: CV-1
# T2 sequence (Q92731 whole entry, species assumed, the tested form may be a part): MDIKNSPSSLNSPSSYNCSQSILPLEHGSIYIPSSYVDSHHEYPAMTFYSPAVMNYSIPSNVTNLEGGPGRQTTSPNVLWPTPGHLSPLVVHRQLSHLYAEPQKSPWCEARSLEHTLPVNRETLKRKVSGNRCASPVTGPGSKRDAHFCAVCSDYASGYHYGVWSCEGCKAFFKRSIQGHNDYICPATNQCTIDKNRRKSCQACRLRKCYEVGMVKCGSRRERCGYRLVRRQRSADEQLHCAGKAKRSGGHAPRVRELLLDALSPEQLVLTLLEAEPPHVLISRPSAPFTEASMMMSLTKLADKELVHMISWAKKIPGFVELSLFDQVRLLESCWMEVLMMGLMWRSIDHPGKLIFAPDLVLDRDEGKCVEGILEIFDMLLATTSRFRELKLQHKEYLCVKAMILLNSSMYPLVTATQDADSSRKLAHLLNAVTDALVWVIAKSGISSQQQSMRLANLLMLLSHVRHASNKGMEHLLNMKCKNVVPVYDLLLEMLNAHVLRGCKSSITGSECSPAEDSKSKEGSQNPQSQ
# Protocol: (§1) FIG. 6C1-3 illustrate the association of STAMP with assorted steroid/nuclear receptors, including glucocorticoid receptors (GRs), progesterone receptors (PRs), androgen receptors (ARs), estrogen receptors (ER α or β), PPARγ2 receptors, thyroid receptor beta (TR), and retinoid (α) receptors (RAR α or RXR α). Triplicate samples of CV-1 cells were transfected (as described for FIG. 6B) with GAL, or GAL fused to TIF2.4 or STAMP834C, plus VP16 fused to the indicated full length receptors and incubated with the appropriate steroid (1 μM Dex, 20 nM R5020, 1 nM R1881, 0.1 μM triiodothyronine, or 1 μM estradiol, roziglitazone, or 9-cis-retinoic acid). The average relative luciferase activities of 2-3 experiments±S.E.M. were then plotted. FIG. 6C1 illustrates the effects of STAMP association upon GR, PR and AR induced expression. FIG. 6C2 illustrates the effects of STAMP association upon ERα, ERβ and PPARγ2 induced expression. FIG. 6C3 illustrates the effects of STAMP association upon TR, RARα and RXRα induced expression.
# (§2) These assays were conducted as described (He et al., 2002). […]
# [2] = biological target: T1, PRs (B-form); experiment: Mammalian two-hybrid assay with VP16 full length receptor: PR; details: 20 nM R5020
# Protocol: as §1, §2
# [3] = biological target: T3, PCAF (Homo sapiens, UniProt Q92831); experiment: Mammalian two-hybrid assay with PCAF; details: data not shown
# T3 construct: expressed in transfected cells; host or cells: CV-1 (the same two-hybrid assay)
# T3 sequence (Q92831 whole entry, species assumed): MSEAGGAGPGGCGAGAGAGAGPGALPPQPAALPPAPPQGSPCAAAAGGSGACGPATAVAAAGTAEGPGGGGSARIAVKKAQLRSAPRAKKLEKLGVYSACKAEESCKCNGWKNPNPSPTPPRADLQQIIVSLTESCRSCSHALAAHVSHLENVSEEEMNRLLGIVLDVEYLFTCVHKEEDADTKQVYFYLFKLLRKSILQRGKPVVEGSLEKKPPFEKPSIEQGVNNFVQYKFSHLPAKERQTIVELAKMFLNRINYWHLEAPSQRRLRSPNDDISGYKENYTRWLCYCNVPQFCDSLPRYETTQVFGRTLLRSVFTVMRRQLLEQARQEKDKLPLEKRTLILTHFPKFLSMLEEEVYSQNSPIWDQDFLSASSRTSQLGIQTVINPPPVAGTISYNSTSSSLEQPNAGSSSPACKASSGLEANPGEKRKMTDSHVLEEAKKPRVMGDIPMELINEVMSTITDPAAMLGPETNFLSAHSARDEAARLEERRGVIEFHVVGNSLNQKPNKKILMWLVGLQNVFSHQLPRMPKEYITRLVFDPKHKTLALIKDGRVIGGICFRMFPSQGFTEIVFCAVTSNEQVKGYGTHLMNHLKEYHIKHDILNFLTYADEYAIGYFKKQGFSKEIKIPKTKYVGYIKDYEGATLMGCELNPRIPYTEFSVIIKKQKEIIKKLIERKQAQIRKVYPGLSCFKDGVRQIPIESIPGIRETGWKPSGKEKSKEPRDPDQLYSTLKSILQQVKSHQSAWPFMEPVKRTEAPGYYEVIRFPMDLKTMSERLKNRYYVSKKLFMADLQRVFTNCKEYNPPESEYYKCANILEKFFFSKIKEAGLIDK
# Protocol: These assays were conducted as described (He et al., 2002). In particular, the recommended procedure for the Mammalian Matchmaker two-hybrid assay kit (Clontech) was modified slightly by changing from a chloramphenicol acetyltransferase reporter to a Luciferase Reporter pFRLuc (Stratagene), which is under the control of five repeats of the upstream activating sequence for the binding of GAL4.
# [4] = test system: GR repression of an AP-1 induced gene; experiment: GR-mediated repression of PMA-induced AP-1/Luc reporter in U2OS.rGR cells; details: 25 μM PMA, no Dex
# Protocol: FIG. 5A-F illustrate STAMP modulation of GR-mediated repression. […] U2OS.rGR cells were transiently transfected with ±TIF2 (20 ng)±STAMP (100 ng) plasmids, AP-1/Luc reporter (20 ng), and Renilla control (10 ng) plasmid. The cells were induced with ethanol (EtOH) or 25 μM PMA±0.1 μM Dex. […] The average values±S.E.M. of four experiments are plotted. The numbers in parentheses above the bars labeled “PMA+Dex” represent the average fold repression caused by Dex± the various factors.
# FIG. 5B illustrates that functional TIF2 is needed for optimal STAMP activity. U2OS.rGR cells were transiently transfected and processed as described for FIG. 5A but less STAMP (50 ng) was used and two concentrations of TIF2 or TIF2m123 (10 and 20 ng) were employed. The average values±S.E.M. of 4-5 experiments are plotted. An asterisk indicates a significant difference (P≦0.031) between samples containing equal amounts of TIF2 and TIF2m123.
# Rogatsky et al. have reported that TIF2 augments GR repression of an AP-1 induced gene. […] The TIF2 domain identified as having TIF2 activity in GR repression was the same as used to isolate STAMP. In order to determine if STAMP was active in GR-mediated gene repression as well as induction, the ability of STAMP to increase the repressive activity of GR in the AP-1 responsive whole cell bioassay system was assessed using U2OS.rGR cells.
molecule,measurement,setting,value
B1,interaction with estrogen receptor β,[1],lack of interaction
same,"interaction with agonist-bound, full length PR",[2],interacted
B2,association with PCAF,[3],negligible association
B3,fold induction by PMA,[4],unchanged

# Reference: patent publication US7867500B2, “Cofactor that modulates steroid receptor activities” (The United States of America as represented by the …, priority 2004, dated 2011)
